Test results taken from paper PMC11389407.

Assays:
[1] = biological target: F_((ecto))-K394R (F_((ecto))-WT with substitution of Lys394 with Arg394) fused with the T4 fibritin trimerization domain (respiratory syncytial virus (strain of the construct not stated) | T4) (UniProt P03420); experiment: MST; RED-NHS-labelled F_((ecto)) protein at 50 nM pretreated with DMSO, IGF1R titrated from 30.6 pM to 2 µM, PBS, Monolith NT.115
[2] = biological target: F_((ecto))-WT (1–513 aa) fused with the T4 fibritin trimerization domain (respiratory syncytial virus (strain of the construct not stated) | T4) (UniProt P03420); experiment: as above

With “extracellular domain of the human IGF1R protein (Met 1−Asn 932) (from UniProt P08069 31-932) (domain or fragment)” the Kd [1] was 12 nM and the Kd [2] was 11 nM.
